Conditions: Homo sapiens; pH 2.7; Thermal; DSC; glycine 0.05 M; reversible: yes; whole UniProt chain shown

B1: Lysozyme C wild type, P61626 (protein)
chain: MKALIVLGLVLLSVTVQGKVFERCELARTLKRLGMDGYRGISLANWMCLAKWESGYNTRATNYNAGDRSTDYGIFQINSRYWCNDGKTPGAVNACHLSCSALLQDNIADAVACAKRVVRDPQGIRAWVAWRNRCQNRDVRQYVQGCGV
  Tm: 64.9 °C
  heat capacity change of unfolding: 1.55 kcal/mol/K
  unfolding enthalpy (calorimetric): 114 kcal/mol

Source: FireProtDB (doi:10.1046/j.1432-1327.1999.00918.x)
